{"source": "paper PMC7187728", "about": "(Biochemistry, 2018)", "molecules": {"B1": {"name": "RcNSAR/OSBS (Roseiflexus castenholzii DSM 13941) (protein)", "chain": "MKIESITLHHIDMPLVAPFETSFGRETHRPCILIEMRADGLTGWGECVAGAGPWYAYETIGTAWHIISDFLAPMIVGQEITEPIGIVERFASVRGHPMARAAVEAAFWDLYAQARGVSLARLIGATRDRVTVGVSVGIELTLEAQLASIERFVAAGYARIKLKIKPGWDVAVVRAVRERWPDIALQVDANSAYTPDDAPIFRELDEMNLLLIEQPLHHDDIVDHARLQAQISTPICLDESIHSPEHARWALDIDACRVINIKIGRVGGLTAARQIHDLCAERGVPVWCGGMLETNVGRAVNLALAALPNFALPGDISASARYYHRDIAAPDFVLNDDSTITVPDTPGTGVAVLPERLRDVQVREVIIGKG"}, "B2": {"name": "AmedNSAR (Amycolatopsis mediterranei S699) (protein)", "chain": "MKLTGVELLRVRMPLVAPFRTSFGTQAERELLLLRAVTSEGEGWGECGAMAGPLYSAEYIDGVEHVLQAFLVPALLAAGDLTAHKVAPLLAKFKGHRMAKAALEMAVLDAELRAHGLSFGTALGSTSDSVPCGVSVGIMDSIPQLVDVVGGYLDAGYLRIKLKIEPGWDVEPVRAVRERFGDDILLQVDANTAYTLSDVPQLQRLDPFGLLLIEQPLEEEDVLGHAELARHLRTPICLDETVVSAASAAAAIRLGACRIVNIKPSRVGGYLEARRVHDVCAAHGIPVWCGGMLETGLGRAANVALASLPGFTLPGDTSASDRFYRTDITEPFVLEAGRLPVPSGPGLGVTPIPERLAEVTTAKSWLA"}}, "key": {"AaOSBS": {"biological_target": "T1, AaOSBS (Alicyclobacillus acidocaldarius, UniProt Z9M799VK71)", "T1 sequence (Z9M799VK71 4-380)": "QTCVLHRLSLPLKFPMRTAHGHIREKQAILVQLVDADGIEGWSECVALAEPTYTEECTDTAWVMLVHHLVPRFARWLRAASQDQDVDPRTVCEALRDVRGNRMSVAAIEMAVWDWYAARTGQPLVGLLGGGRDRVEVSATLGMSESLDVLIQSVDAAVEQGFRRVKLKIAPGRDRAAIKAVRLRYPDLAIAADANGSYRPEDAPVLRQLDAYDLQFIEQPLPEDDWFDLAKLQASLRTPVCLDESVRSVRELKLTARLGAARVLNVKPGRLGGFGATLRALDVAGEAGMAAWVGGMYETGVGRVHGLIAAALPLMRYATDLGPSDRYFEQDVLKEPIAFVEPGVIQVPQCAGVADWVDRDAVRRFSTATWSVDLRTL", "assay": "inhibition of OSBS activity, SHCHC loss at […] nm", "type": "biochemical"}, "[1]": {"system": "O=C(O)CCC(=O)C1=CC=C[C@@H](O)[C@@H]1C(=O)O", "assay": "purified protein", "type": "biochemical, Alicyclobacillus acidocaldarius", "settings": "50 mM Tris pH 8.0, 0.1 mM MnCl2, 25 °C"}, "purified protein [2]": {"substrate": "O=C(O)CCC(=O)C1=CC=C[C@@H](O)[C@@H]1C(=O)O", "assay": "purified protein", "type": "biochemical, Roseiflexus castenholzii", "settings": "50 mM Tris pH 8.0, 0.1 mM MnCl2, 25 °C"}, "purified protein [3]": {"substrate": "O=C(O)CCC(=O)N[C@@H](C(=O)O)c1ccccc1", "assay": "purified protein", "type": "biochemical, Roseiflexus castenholzii", "settings": "200 mM Tris pH 8.0, 0.1 mM MnCl2"}, "purified protein [4]": {"substrate": "O=C(O)CCC(=O)C1=CC=C[C@@H](O)[C@@H]1C(=O)O", "assay": "purified protein", "type": "biochemical, Amycolatopsis mediterranei", "settings": "50 mM Tris pH 8.0, 0.1 mM MnCl2, 25 °C"}, "purified protein [5]": {"substrate": "O=C(O)CCC(=O)N[C@@H](C(=O)O)c1ccccc1", "assay": "purified protein", "type": "biochemical, Amycolatopsis mediterranei", "settings": "200 mM Tris pH 8.0, 0.1 mM MnCl2"}}, "data": [{"molecule": "O=C(O)CCC(=O)N[C@H](C(=O)O)c1ccccc1", "note": "[L-NSPG, N-succinyl-L-phenylglycine]", "values": [{"measurement": "Ki", "setting": "AaOSBS", "result": "2.6 ± 0.4", "unit": "mM"}]}, {"molecule": "O=C(O)CCC(=O)N[C@@H](C(=O)O)c1ccccc1", "note": "[D-NSPG, N-succinyl-D-phenylglycine]", "values": [{"measurement": "Ki", "setting": "AaOSBS", "result": "3.6 ± 0.4", "unit": "mM"}]}, {"molecule": "AaOSBS (Alicyclobacillus acidocaldarius)", "values": [{"measurement": "Km", "setting": "[1]", "result": "118 ± 18", "unit": "µM"}, {"measurement": "kcat", "setting": "[1]", "result": "64 ± 3", "unit": "s⁻¹"}, {"measurement": "kcat/Km", "setting": "[1]", "result": 540000, "unit": "M⁻¹ s⁻¹"}]}, {"molecule": "B1", "values": [{"measurement": "Km", "setting": "purified protein [2]", "result": "155 ± 22", "unit": "µM"}, {"measurement": "kcat", "setting": "purified protein [2]", "result": "38 ± 3", "unit": "s⁻¹"}, {"measurement": "kcat/Km", "setting": "purified protein [2]", "result": 250000, "unit": "M⁻¹ s⁻¹"}, {"measurement": "Km", "setting": "purified protein [3]", "result": "1800 ± 230", "unit": "µM"}, {"measurement": "kcat", "setting": "purified protein [3]", "result": "15 ± 4", "unit": "s⁻¹"}, {"measurement": "kcat/Km", "setting": "purified protein [3]", "result": 8300, "unit": "M⁻¹ s⁻¹"}]}, {"molecule": "B2", "values": [{"measurement": "Km", "setting": "purified protein [4]", "result": "415 ± 39", "unit": "µM"}, {"measurement": "kcat", "setting": "purified protein [4]", "result": "242 ± 11", "unit": "s⁻¹"}, {"measurement": "kcat/Km", "setting": "purified protein [4]", "result": 580000, "unit": "M⁻¹ s⁻¹"}, {"measurement": "Km", "setting": "purified protein [5]", "result": "2800 ± 550", "unit": "µM"}, {"measurement": "kcat", "setting": "purified protein [5]", "result": "74 ± 7", "unit": "s⁻¹"}, {"measurement": "kcat/Km", "setting": "purified protein [5]", "result": 26000, "unit": "M⁻¹ s⁻¹"}]}]}
